Measurements: patent US20220332795A1 (ARO BIOTHERAPEUTICS, published 2022)
Where a chain is given by its changes, count along the chain named. Each block holds one binder with its values, some of them ahead of it.

Columns and labels:
[1] = target: T1, recombinant biotinylated human CD71 extracellular domain (human, UniProt P02786 89-760, biotinylated); assay: solution ELISA, signal ratio to HSA
T1 construct: extracellular domain; also called hCD71; huCD71 ECD

CD71 apical domain [2] = target: T2, CD71 apical domain (UniProt P02786 189-383, limits assumed); assay: solution ELISA, signal ratio to HSA
T2 construct: domain: Apical domain

[3] = target: T1, recombinant biotinylated human CD71 …; assay: solution ELISA
CD71 apical domain [4] = target: T2, CD71 apical domain; assay: solution ELISA

T1 sequence (P02786 other isoform, or with tags, fused parts or gaps): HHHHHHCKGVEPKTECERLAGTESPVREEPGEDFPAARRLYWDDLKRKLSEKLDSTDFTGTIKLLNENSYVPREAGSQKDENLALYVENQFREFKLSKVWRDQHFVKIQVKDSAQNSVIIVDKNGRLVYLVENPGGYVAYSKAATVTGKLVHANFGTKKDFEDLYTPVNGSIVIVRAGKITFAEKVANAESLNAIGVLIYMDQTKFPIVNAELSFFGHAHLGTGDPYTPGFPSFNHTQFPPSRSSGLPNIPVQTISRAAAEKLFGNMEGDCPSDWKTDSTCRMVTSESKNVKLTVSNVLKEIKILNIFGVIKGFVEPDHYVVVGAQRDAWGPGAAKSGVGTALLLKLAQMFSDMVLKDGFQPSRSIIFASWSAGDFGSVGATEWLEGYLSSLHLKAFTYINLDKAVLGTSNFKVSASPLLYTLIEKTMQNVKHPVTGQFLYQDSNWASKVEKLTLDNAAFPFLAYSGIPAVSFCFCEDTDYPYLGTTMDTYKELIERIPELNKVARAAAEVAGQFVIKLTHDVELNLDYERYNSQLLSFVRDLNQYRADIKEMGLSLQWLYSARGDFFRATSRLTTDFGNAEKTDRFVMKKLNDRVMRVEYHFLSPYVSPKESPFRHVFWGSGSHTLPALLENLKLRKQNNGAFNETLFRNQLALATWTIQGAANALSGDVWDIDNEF
T2 sequence (P02786 189-383 limits assumed): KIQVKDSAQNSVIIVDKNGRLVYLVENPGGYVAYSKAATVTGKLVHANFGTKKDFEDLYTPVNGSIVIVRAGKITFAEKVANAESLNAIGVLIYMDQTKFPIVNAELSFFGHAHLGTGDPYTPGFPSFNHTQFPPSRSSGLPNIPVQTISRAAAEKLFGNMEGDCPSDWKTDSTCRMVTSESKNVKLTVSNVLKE

B1: SEQ ID NO 103 (designed binder)
chain: MLPAPKNLVVSRVTEDSARLSWTAPDAAFDSFHIVYHEPRPSGEAIWLHVPGSERSYDLTGLKPGTEYEVGIVSVKGGDLSVPLVAFFTT
notes: FN3 domain
hCD71:HSA [1]: 28.2
apical domain:HSA (CD71 apical domain [2]): 143
hCD71, RLU [3]: 818000 RLU
Apical domain, RLU (CD71 apical domain [4]): 4.14e+06 RLU

B2: SEQ ID NO 168 (designed binder)
chain: MLPAPKNLVVSRVTEDSARLSWTAPDAAFDSFYIAYAEPRPDGEAILLDVPGSERSYDLTGLKPGTEYSVLIHGVKGGLLSSPLSAIFTT
notes: FN3 domain
hCD71:HSA [1]: 271
apical domain:HSA (CD71 apical domain [2]): 468
hCD71, RLU [3]: 3.97e+06 RLU
Apical domain, RLU (CD71 apical domain [4]): 6.86e+06 RLU

B3: SEQ ID NO 112 (designed binder)
chain: B2 chain with D49L
notes: FN3 domain
hCD71:HSA [1]: 413
apical domain:HSA (CD71 apical domain [2]): 709
hCD71, RLU [3]: 4.48e+06 RLU
Apical domain, RLU (CD71 apical domain [4]): 7.7e+06 RLU

B5: SEQ ID NO 135 (designed binder)
chain: B2 chain with L47Q, D49A, S85H, I87F
notes: FN3 domain
hCD71:HSA [1]: 42.1
apical domain:HSA (CD71 apical domain [2]): 263
hCD71, RLU [3]: 967000 RLU
Apical domain, RLU (CD71 apical domain [4]): 6.05e+06 RLU

B7: SEQ ID NO 104 (designed binder)
chain: B2 chain with L47S, D49L, S85Y, I87V
notes: FN3 domain
hCD71:HSA [1]: 89.8
apical domain:HSA (CD71 apical domain [2]): 559
hCD71, RLU [3]: 947000 RLU
Apical domain, RLU (CD71 apical domain [4]): 5.9e+06 RLU

B8: SEQ ID NO 131 (designed binder)
chain: B2 chain with L47H, D49W, S85I, I87H
notes: FN3 domain
hCD71:HSA [1]: 10.3
apical domain:HSA (CD71 apical domain [2]): 269
hCD71, RLU [3]: 203000 RLU
Apical domain, RLU (CD71 apical domain [4]): 5.28e+06 RLU

B9: SEQ ID NO 116 (designed binder)
chain: B2 chain with L47Q, D49V
notes: FN3 domain
hCD71:HSA [1]: 37.1
apical domain:HSA (CD71 apical domain [2]): 427
hCD71, RLU [3]: 428000 RLU
Apical domain, RLU (CD71 apical domain [4]): 4.93e+06 RLU

B10: SEQ ID NO 113 (designed binder)
chain: B2 chain with L47N, D49Q, S85V, I87F
notes: FN3 domain
hCD71:HSA [1]: 42.6
apical domain:HSA (CD71 apical domain [2]): 196
hCD71, RLU [3]: 1.27e+06 RLU
Apical domain, RLU (CD71 apical domain [4]): 5.83e+06 RLU

B12: SEQ ID NO 124 (designed binder)
chain: B2 chain with L47Q, D49H, S85L, I87S
notes: FN3 domain
hCD71:HSA [1]: 63.1
apical domain:HSA (CD71 apical domain [2]): 224
hCD71, RLU [3]: 1.54e+06 RLU
Apical domain, RLU (CD71 apical domain [4]): 5.46e+06 RLU

B13: SEQ ID NO 145 (designed binder)
chain: B2 chain with D49Q, S85T
notes: FN3 domain
hCD71:HSA [1]: 348
apical domain:HSA (CD71 apical domain [2]): 466
hCD71, RLU [3]: 6.2e+06 RLU
Apical domain, RLU (CD71 apical domain [4]): 8.3e+06 RLU

B14: SEQ ID NO 132 (designed binder)
chain: B2 chain with Y33F, A35P, R40S, D42T, L47V, D49T, I87H
notes: FN3 domain
hCD71:HSA [1]: 43.2
apical domain:HSA (CD71 apical domain [2]): 180
hCD71, RLU [3]: 1.78e+06 RLU
Apical domain, RLU (CD71 apical domain [4]): 7.43e+06 RLU

B16: SEQ ID NO 118 (designed binder)
chain: B2 chain with L47W, D49V, S85V, I87S
notes: FN3 domain
hCD71:HSA [1]: 120
apical domain:HSA (CD71 apical domain [2]): 459
hCD71, RLU [3]: 1.73e+06 RLU
Apical domain, RLU (CD71 apical domain [4]): 6.58e+06 RLU

B17: SEQ ID NO 143 (designed binder)
chain: B2 chain with D49F, S85V, I87H
notes: FN3 domain
hCD71:HSA [1]: 157
apical domain:HSA (CD71 apical domain [2]): 363
hCD71, RLU [3]: 3.25e+06 RLU
Apical domain, RLU (CD71 apical domain [4]): 7.51e+06 RLU

B21: SEQ ID NO 117 (designed binder)
chain: B2 chain with L47T
notes: FN3 domain
hCD71:HSA [1]: 75.4
apical domain:HSA (CD71 apical domain [2]): 312
hCD71, RLU [3]: 1.3e+06 RLU
Apical domain, RLU (CD71 apical domain [4]): 5.36e+06 RLU

B23: SEQ ID NO 120 (designed binder)
chain: B2 chain with L47H, D49S, S85V
notes: FN3 domain
hCD71:HSA [1]: 42.5
apical domain:HSA (CD71 apical domain [2]): 487
hCD71, RLU [3]: 501000 RLU
Apical domain, RLU (CD71 apical domain [4]): 5.75e+06 RLU

B24: SEQ ID NO 125 (designed binder)
chain: B2 chain with L47A, D49H, S85V, I87F
notes: FN3 domain
hCD71:HSA [1]: 76.2
apical domain:HSA (CD71 apical domain [2]): 327
hCD71, RLU [3]: 1.23e+06 RLU
Apical domain, RLU (CD71 apical domain [4]): 5.26e+06 RLU

B25: SEQ ID NO 119 (designed binder)
chain: B2 chain with L47N, S85V, I87E
notes: FN3 domain
hCD71:HSA [1]: 57.6
apical domain:HSA (CD71 apical domain [2]): 228
hCD71, RLU [3]: 1.25e+06 RLU
Apical domain, RLU (CD71 apical domain [4]): 4.93e+06 RLU

B26: SEQ ID NO 122 (designed binder)
chain: B2 chain with L47I, D49V, I87H
notes: FN3 domain
hCD71:HSA [1]: 351
apical domain:HSA (CD71 apical domain [2]): 592
hCD71, RLU [3]: 4.77e+06 RLU
Apical domain, RLU (CD71 apical domain [4]): 8.06e+06 RLU

B28: SEQ ID NO 127 (designed binder)
chain: B2 chain with L47F, D49G
notes: FN3 domain
hCD71:HSA [1]: 66.3
apical domain:HSA (CD71 apical domain [2]): 292
hCD71, RLU [3]: 1.41e+06 RLU
Apical domain, RLU (CD71 apical domain [4]): 6.24e+06 RLU

Other lines, results leading:

hCD71:HSA [1]: 37
apical domain:HSA (CD71 apical domain [2]): 190
hCD71, RLU [3]: 965000 RLU
Apical domain, RLU (CD71 apical domain [4]): 4.96e+06 RLU
B4: SEQ ID NO 141 (designed binder)
chain: B2 chain with L47F, D49G, S85I, I87F
notes: FN3 domain

hCD71:HSA [1]: 268
apical domain:HSA (CD71 apical domain [2]): 412
hCD71, RLU [3]: 5.11e+06 RLU
Apical domain, RLU (CD71 apical domain [4]): 7.87e+06 RLU
B6: SEQ ID NO 137 (designed binder)
chain: B2 chain with L47V, S85V, I87E
notes: FN3 domain

hCD71:HSA [1]: 121
apical domain:HSA (CD71 apical domain [2]): 209
hCD71, RLU [3]: 4.31e+06 RLU
Apical domain, RLU (CD71 apical domain [4]): 7.41e+06 RLU
B11: SEQ ID NO 128 (designed binder)
chain: B2 chain with L47V, D49R, S85I, I87S
notes: FN3 domain

hCD71:HSA [1]: 30.8
apical domain:HSA (CD71 apical domain [2]): 234
hCD71, RLU [3]: 516000 RLU
Apical domain, RLU (CD71 apical domain [4]): 3.91e+06 RLU
B15: SEQ ID NO 144 (designed binder)
chain: B2 chain with L47G, D49Y, S85G, I87F
notes: FN3 domain

hCD71:HSA [1]: 118
apical domain:HSA (CD71 apical domain [2]): 176
hCD71, RLU [3]: 4.97e+06 RLU
Apical domain, RLU (CD71 apical domain [4]): 7.37e+06 RLU
B18: SEQ ID NO 106 (designed binder)
chain: B2 chain with S85Y, I87S
notes: FN3 domain

hCD71:HSA [1]: 41
apical domain:HSA (CD71 apical domain [2]): 186
hCD71, RLU [3]: 1.04e+06 RLU
Apical domain, RLU (CD71 apical domain [4]): 4.74e+06 RLU
B19: SEQ ID NO 133 (designed binder)
chain: B2 chain with L47Y, D49Y, S85D, I87F
notes: FN3 domain

hCD71:HSA [1]: 74.3
apical domain:HSA (CD71 apical domain [2]): 369
hCD71, RLU [3]: 1.08e+06 RLU
Apical domain, RLU (CD71 apical domain [4]): 5.35e+06 RLU
B20: SEQ ID NO 138 (designed binder)
chain: B2 chain with A4T, L47Q, D49R, S85H, I87S
notes: FN3 domain

hCD71:HSA [1]: 36.7
apical domain:HSA (CD71 apical domain [2]): 309
hCD71, RLU [3]: 640000 RLU
Apical domain, RLU (CD71 apical domain [4]): 5.39e+06 RLU
B22: SEQ ID NO 134 (designed binder)
chain: B2 chain with L47G, D49Q
notes: FN3 domain

hCD71:HSA [1]: 13.8
apical domain:HSA (CD71 apical domain [2]): 264
hCD71, RLU [3]: 219000 RLU
Apical domain, RLU (CD71 apical domain [4]): 4.18e+06 RLU
B27: SEQ ID NO 129 (designed binder)
chain: B2 chain with L47N, D49W, S85D, I87S
notes: FN3 domain

hCD71:HSA [1]: 142
apical domain:HSA (CD71 apical domain [2]): 397
hCD71, RLU [3]: 2.43e+06 RLU
Apical domain, RLU (CD71 apical domain [4]): 6.79e+06 RLU
B29: SEQ ID NO 105 (designed binder)
chain: B2 chain with L47F, D49V, S85H, I87N
notes: FN3 domain
